From publication PMC5222524

Molecular target: Class C scavenger receptor of Marsupenaeus japonicus (MjSRC), native protein of hemocytes (Marsupenaeus japonicus (endogenous in hemocytes))
Test: cross-linking; hemocytes collected 30 min after injection of WSSV or PBS, 5 mM BS3 at 4°C for 1 h in PBS pH 8.0, quenched with Tris-HCl; SDS-PAGE and western blotting with anti-MjSRC sera; oligomer size by molecular mass

For “Class C scavenger receptor of Marsupenaeus japonicus (MjSRC), native protein of hemocytes (from UniProt A0A1L2DC21 1-692)”, which stoichiometry N is on record?
Its stoichiometry N is 3.
